We go through one molecule from publication PMC7375243, “Structural Basis of Human Helicase DDX21 in RNA Binding, Unwinding, and Antiviral Signal Activation” (Advanced Science, 2020).

Common to all, as to settings: protein: recombinant; tags: N-terminal His-SUMO, removed by ULP1; label: FAM; single strand
One series addresses T1, DDX21 core del-loop (human, UniProt Q9NR30 188-563, del401-405).
T1 sequence: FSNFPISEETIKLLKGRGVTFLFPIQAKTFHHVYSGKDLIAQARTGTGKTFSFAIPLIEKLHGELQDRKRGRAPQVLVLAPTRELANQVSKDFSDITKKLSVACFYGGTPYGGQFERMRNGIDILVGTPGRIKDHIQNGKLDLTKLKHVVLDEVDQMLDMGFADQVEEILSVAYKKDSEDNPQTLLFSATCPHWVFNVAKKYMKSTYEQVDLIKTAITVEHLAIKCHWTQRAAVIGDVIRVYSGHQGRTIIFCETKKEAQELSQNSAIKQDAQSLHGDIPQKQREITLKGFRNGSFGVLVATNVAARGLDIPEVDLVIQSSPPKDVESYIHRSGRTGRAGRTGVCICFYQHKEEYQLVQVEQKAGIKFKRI
Kind of series: UV crosslinking; retains more than half; MST: 50 mM Tris pH 7.5, 50 mM KCl, 2 mM MgCl2, 1 mM TCEP, 0.01% NP-40, 0.05 mg/mL BSA, 2 mM AMPPNP, 50 nM FAM-RNA; temperature not given; crosslinking buffer not in material.

Series [1] concerns the target T2, DDX21 helicase core (D1D2, DDX21-delNC) (human, UniProt Q9NR30 188-563).
T2 sequence: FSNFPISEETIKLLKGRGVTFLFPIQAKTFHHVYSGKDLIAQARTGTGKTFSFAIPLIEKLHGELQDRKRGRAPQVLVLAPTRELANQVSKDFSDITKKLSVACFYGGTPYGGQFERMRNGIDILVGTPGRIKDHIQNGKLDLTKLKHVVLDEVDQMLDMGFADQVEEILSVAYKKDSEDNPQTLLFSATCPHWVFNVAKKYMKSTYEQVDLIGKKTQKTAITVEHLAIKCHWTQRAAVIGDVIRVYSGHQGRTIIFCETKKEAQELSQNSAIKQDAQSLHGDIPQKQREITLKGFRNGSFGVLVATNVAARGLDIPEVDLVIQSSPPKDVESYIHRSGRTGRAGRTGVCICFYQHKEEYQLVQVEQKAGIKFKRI
The series can be described thus: MST; 2 mM AMPPNP, 2 mM MgCl2; value only in figure; MST: 50 mM Tris pH 7.5, 50 mM KCl, 2 mM MgCl2, 1 mM TCEP, 0.01% NP-40, 0.05 mg/mL BSA, 2 mM AMPPNP, 50 nM FAM-RNA; temperature not given; crosslinking buffer not in material.

A further series concerns the target T3, DDX21 core S375L/A376E (human, UniProt Q9NR30 188-563, S375L;A376E).
T3 sequence: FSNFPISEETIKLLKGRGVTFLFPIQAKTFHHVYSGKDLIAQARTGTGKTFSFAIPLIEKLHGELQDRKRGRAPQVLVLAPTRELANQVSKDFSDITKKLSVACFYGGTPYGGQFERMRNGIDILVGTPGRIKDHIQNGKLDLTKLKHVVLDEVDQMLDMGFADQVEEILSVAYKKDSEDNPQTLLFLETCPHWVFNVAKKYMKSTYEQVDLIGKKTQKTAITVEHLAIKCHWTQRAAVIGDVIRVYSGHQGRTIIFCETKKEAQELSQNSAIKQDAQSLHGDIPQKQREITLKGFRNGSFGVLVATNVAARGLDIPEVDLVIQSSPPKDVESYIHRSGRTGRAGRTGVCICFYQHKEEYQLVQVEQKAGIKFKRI
The series can be described thus: UV crosslinking; about half of activity; MST: 50 mM Tris pH 7.5, 50 mM KCl, 2 mM MgCl2, 1 mM TCEP, 0.01% NP-40, 0.05 mg/mL BSA, 2 mM AMPPNP, 50 nM FAM-RNA; temperature not given; crosslinking buffer not in material.

For a further series, the target named is T4, DDX21 core 7A (human, UniProt Q9NR30 188-563, R270A;T315A;R318A;D321A;Q352A;R476A;T494A).
T4 sequence: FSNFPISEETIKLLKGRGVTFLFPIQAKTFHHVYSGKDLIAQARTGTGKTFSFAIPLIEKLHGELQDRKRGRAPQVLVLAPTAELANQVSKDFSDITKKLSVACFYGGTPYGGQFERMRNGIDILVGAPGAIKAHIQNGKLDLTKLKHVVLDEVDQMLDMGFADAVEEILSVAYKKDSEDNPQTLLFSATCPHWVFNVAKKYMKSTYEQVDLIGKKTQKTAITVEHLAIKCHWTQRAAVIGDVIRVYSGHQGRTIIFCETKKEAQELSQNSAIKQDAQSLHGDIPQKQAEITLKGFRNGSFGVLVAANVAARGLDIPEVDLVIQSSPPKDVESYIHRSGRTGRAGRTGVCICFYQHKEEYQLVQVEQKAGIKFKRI
Kind of series: UV crosslinking; comparable to WT; MST: 50 mM Tris pH 7.5, 50 mM KCl, 2 mM MgCl2, 1 mM TCEP, 0.01% NP-40, 0.05 mg/mL BSA, 2 mM AMPPNP, 50 nM FAM-RNA; temperature not given; crosslinking buffer not in material.

A further series addresses T5, DDX21 core 8A (human, UniProt Q9NR30 188-563, R255A;R270A;T315A;R318A;D321A;Q352A;R476A;T494A).
T5 sequence: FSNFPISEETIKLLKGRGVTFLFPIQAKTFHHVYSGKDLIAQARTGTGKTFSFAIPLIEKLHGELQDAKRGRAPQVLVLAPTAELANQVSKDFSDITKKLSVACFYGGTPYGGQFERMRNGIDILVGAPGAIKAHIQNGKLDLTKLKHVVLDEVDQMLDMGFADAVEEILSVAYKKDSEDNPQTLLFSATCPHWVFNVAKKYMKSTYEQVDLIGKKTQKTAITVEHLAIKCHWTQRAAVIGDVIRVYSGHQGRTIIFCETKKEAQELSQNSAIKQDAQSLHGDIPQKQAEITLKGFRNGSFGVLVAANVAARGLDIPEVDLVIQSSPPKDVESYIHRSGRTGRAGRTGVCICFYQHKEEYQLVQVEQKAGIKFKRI
The description is as above.

UUUUUUUUUUUUUUU (ssRNA) [FAM-U15]: the values for the binding signal with DDX21 core del-loop and with DDX21 core S375L/A376E were > 50 % of WT and ~50 % of WT, respectively. Moreover, the binding result (in series [1]; with DDX21 core 7A; with DDX21 core 8A) was “binds” throughout.
